Source: paper doi:10.1101/2024.05.05.592606 (bioRxiv, 2024)
* marks the point of attachment. 5FAM = O=C1OC2(c3ccc(O)cc3Oc3cc(O)ccc32)c2ccc(C(=O)*)cc21

target: human LRH-1 (NR5A2) ligand-binding domain (LBD) (human, UniProt O00482-1 266-541); assay: fluorescence polarisation
Sequence (O00482 266-541): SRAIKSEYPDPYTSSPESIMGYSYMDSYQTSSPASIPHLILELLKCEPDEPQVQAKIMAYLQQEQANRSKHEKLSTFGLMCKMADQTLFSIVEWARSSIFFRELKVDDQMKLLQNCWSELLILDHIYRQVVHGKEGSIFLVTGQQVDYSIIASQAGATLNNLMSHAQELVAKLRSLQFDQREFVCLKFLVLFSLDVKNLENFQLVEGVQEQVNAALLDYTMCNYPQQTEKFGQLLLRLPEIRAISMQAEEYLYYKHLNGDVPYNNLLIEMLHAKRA

Binder	binding result
5FAM-QGSILYSLLMSAKQ-OH (SMILES CC[C@H](C)[C@H](NC(=O)[C@H](CO)NC(=O)CNC(=O)[C@H](CCC(N)=O)NC(=O)c1ccc2c(c1)C(=O)OC21c2ccc(O)cc2Oc2cc(O)ccc21)C(=O)N[C@@H](CC(C)C)C(=O)N[C@@H](Cc1ccc(O)cc1)C(=O)N[C@@H](CO)C(=O)N[C@@H](CC(C)C)C(=O)N[C@@H](CC(C)C)C(=O)N[C@@H](CCSC)C(=O)N[C@@H](CO)C(=O)N[C@@H](C)C(=O)N[C@@H](CCCCN)C(=O)N[C@@H](CCC(N)=O)C(=O)O) [DAX1-3 FAM-labeled coregulator peptide]	binds
5FAM-RPTILYALLSPSPR-OH (SMILES CC[C@H](C)[C@H](NC(=O)[C@@H](NC(=O)[C@@H]1CCCN1C(=O)[C@H](CCCNC(=N)N)NC(=O)c1ccc2c(c1)C(=O)OC21c2ccc(O)cc2Oc2cc(O)ccc21)[C@@H](C)O)C(=O)N[C@@H](CC(C)C)C(=O)N[C@@H](Cc1ccc(O)cc1)C(=O)N[C@@H](C)C(=O)N[C@@H](CC(C)C)C(=O)N[C@@H](CC(C)C)C(=O)N[C@@H](CO)C(=O)N1CCC[C@H]1C(=O)N[C@@H](CO)C(=O)N1CCC[C@H]1C(=O)N[C@@H](CCCNC(=N)N)C(=O)O) [SHP-1 FAM-labeled coregulator peptide]	binds
5FAM-EEPSLLKKLLLAPA-OH (SMILES CC(C)C[C@H](NC(=O)[C@H](CC(C)C)NC(=O)[C@H](CC(C)C)NC(=O)[C@H](CCCCN)NC(=O)[C@H](CCCCN)NC(=O)[C@H](CC(C)C)NC(=O)[C@H](CC(C)C)NC(=O)[C@H](CO)NC(=O)[C@@H]1CCCN1C(=O)[C@H](CCC(=O)O)NC(=O)[C@H](CCC(=O)O)NC(=O)c1ccc2c(c1)C(=O)OC21c2ccc(O)cc2Oc2cc(O)ccc21)C(=O)N[C@@H](C)C(=O)N1CCC[C@H]1C(=O)N[C@@H](C)C(=O)O) [PGC1α FAM-labeled coregulator peptide]	binds
